T1: human ROBO3 (pCI-hROBO3-transfected HEK293 cells) (human, UniProt Q96MS0 21-1386)
T1 sequence: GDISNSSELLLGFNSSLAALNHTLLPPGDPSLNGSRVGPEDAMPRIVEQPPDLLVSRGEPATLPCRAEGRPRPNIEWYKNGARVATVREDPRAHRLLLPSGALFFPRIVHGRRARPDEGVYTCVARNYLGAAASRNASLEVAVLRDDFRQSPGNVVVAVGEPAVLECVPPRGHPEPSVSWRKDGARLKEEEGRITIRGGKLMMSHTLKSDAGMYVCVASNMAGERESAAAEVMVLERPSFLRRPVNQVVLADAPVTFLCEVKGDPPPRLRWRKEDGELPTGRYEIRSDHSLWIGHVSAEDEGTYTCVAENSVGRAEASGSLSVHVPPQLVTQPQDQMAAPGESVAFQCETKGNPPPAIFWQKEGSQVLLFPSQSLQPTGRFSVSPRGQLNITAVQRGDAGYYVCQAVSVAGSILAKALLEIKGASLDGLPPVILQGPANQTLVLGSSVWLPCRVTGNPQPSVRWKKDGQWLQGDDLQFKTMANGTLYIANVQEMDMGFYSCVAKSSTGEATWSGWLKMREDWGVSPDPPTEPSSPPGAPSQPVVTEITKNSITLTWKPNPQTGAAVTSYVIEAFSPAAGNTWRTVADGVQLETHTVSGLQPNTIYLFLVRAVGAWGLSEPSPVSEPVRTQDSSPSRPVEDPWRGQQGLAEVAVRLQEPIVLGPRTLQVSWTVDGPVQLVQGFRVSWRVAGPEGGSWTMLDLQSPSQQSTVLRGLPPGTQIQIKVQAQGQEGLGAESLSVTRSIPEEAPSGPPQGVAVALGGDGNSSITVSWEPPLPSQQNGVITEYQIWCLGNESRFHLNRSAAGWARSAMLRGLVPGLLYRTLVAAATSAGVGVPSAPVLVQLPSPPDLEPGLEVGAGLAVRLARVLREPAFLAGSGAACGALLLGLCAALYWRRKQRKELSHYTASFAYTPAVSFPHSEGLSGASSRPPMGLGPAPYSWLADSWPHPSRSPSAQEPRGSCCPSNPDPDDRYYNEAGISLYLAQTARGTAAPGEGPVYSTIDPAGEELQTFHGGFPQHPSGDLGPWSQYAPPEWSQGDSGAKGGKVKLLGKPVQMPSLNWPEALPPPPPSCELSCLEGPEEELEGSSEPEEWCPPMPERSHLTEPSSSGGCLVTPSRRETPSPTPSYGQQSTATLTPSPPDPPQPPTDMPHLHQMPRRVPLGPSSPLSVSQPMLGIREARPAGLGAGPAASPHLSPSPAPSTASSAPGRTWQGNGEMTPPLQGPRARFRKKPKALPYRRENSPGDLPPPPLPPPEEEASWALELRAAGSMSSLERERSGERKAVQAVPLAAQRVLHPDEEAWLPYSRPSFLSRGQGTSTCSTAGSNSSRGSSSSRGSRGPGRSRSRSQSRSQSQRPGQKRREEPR

T2: recombinant human ROBO4 extracellular region polypeptide rROBO4-ECD (human, UniProt Q8WZ75 28-461)
T2 construct: Expressed from pEF6/V5-His-TOPO in FreeStyle 293-F cells; also called human ROBO4-ECD
T2 sequence: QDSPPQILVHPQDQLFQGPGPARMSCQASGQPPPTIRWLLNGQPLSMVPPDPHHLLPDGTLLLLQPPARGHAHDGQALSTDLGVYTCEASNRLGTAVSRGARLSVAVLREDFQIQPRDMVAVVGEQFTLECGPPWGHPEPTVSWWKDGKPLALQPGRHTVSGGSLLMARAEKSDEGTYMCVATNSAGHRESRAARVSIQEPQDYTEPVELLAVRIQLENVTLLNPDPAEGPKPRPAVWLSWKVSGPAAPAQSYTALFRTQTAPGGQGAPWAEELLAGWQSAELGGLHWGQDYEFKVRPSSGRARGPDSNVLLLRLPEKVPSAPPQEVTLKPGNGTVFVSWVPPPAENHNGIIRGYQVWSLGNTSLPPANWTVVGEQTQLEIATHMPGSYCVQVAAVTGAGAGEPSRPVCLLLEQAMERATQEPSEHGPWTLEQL


Legend:
[1] = biological target: N-terminal FLAG-tagged human ROBO1 (pCI-FLAG-hROBO1-transfected HEK293 cells) (human, UniProt Q9Y6N7 58-1651); assay: flow cytometry (FC500), HEK293 cells transfected with pCI-FLAG-hROBO1, FITC goat anti-human IgG Fc; control histogram IgG (human IgG)
[2] = biological target: T1, human ROBO3 (pCI-hROBO3-transfected …); assay: flow cytometry (FC500), HEK293 cells transfected with pCI-hROBO3, FITC goat anti-human IgG Fc; control histogram IgG (human IgG)
[3] = biological target: T2, recombinant human ROBO4 extracellular …; assay: SPR (Biacore 3000), antibody captured via anti-human IgG on CM5, rROBO4-ECD as analyte, 1:1 model
Method: The dissociation constant between each antibody and rROBO4-ECD was determined with the antibody immobilized as a ligand and the antigen as an analyte using Biacore 3000 (manufactured by GE Healthcare Bio-Sciences Corp.). Approximately 80 RU of the antibody was bound via an anti-human IgG antibody (manufactured by GE Healthcare Bio-Sciences Corp.) immobilized on a sensor chip CM5 (manufactured by GE Healthcare Bio-Sciences Corp.) by an amine coupling method. The running buffer used was PBS containing 0.05% Surfactant P20. Dilution series solutions (0.1-200 nM) of the antigen were added at a flow rate of 30 μL/min. for 300 seconds onto the antibody-bound chip. Subsequently, a dissociation phase was monitored for 300 seconds. 3 M MgCl₂ was added thereto as a regeneration solution at a flow rate of 10 μL/min. for 30 seconds. Data was analyzed using the 1:1 binding model of analysis software (BIAevaluation Software, version 4.1) to calculate an association rate constant kon, a dissociation rate constant koff, and a dissociation constant (KD; KD=koff/kon).

N-terminal FLAG-tagged human ROBO1 (pCI-FLAG-hROBO1-transfected HEK293 cells), sequence (Q9Y6N7 other isoform, or with tags, fused parts or gaps): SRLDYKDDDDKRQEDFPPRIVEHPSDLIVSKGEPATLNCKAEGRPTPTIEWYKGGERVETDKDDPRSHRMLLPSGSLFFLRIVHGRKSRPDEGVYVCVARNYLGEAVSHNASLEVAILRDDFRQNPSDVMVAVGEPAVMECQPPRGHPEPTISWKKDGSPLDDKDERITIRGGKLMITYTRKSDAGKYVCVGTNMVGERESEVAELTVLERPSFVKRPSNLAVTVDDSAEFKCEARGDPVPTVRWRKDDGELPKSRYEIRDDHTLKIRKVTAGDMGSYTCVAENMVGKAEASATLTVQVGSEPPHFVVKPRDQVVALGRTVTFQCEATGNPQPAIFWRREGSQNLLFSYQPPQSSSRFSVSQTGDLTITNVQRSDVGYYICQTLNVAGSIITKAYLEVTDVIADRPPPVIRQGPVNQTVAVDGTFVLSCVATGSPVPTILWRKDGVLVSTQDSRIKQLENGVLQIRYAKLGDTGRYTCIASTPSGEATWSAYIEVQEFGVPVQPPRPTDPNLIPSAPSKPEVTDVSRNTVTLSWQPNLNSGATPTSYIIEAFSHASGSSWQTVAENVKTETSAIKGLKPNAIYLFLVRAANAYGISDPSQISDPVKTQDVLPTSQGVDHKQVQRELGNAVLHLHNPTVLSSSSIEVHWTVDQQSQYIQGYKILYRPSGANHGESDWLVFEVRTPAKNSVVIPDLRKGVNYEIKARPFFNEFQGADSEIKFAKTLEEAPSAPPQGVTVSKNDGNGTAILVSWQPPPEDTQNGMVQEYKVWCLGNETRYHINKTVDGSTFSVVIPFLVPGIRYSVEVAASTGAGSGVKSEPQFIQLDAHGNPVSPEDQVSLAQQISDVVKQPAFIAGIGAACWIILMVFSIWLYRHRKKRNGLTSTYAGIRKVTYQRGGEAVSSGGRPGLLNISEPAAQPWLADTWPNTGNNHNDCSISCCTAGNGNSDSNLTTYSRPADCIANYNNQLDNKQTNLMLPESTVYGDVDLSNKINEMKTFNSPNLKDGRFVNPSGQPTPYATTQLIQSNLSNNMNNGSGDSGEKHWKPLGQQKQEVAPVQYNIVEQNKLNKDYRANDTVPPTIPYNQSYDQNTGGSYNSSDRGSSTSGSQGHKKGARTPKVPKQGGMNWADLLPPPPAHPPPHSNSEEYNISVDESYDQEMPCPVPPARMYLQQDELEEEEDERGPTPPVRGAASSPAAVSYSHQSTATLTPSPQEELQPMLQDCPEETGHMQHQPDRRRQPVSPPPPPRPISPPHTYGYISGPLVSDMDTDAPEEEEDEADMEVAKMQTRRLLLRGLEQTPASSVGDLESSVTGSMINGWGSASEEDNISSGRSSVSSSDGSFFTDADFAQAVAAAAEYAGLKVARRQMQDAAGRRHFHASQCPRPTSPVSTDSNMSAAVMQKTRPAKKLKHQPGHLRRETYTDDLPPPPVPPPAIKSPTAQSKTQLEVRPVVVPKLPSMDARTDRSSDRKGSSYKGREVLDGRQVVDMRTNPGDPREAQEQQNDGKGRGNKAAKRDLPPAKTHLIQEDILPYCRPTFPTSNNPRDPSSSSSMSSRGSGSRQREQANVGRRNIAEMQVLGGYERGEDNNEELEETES

Binder	binding result [1]	binding result [2]	Kd [3] [nM]
humanized MAb1 antibody H-1143 (antibody, human IgG2, kappa, V domains shown, Human IgG2 / kappa constant regions; also called hMAb1-H2-type heavy chain + hMAb1-L2-type light chain) VH: EVQLVESGGGLVQPGGSLRLSCAASGFTFSTYAMSWVRQAPGKGLEWVATISQGGTYTYYPDSVKGRFTISRDNAKNTLYLQMNSLRAEDTAVYYCARLIYYDYLDYWGQGTLVTVSS VL: DIVMTQSPLSLPVTLGEPASISCRSSQSLENENKNLYLNWYLQKPGQSPQLLIYRVSNRFSGVPDRFSGSGSGTDFTLKISRVEAEDVGVYYCLQVTHVPWTFGPGTKVDIKR	no binding (tested: 10 µg/mL)	no binding (tested: 10 µg/mL)	3.5
humanized MAb1 antibody H-2140 (antibody, human IgG2, kappa, V domains shown, Human IgG2 / kappa constant regions; also called hMAb1-H4-type heavy chain + hMAb1-L1-type light chain) VH: EVQLVESGGGLVQPGGSLRLSCAASGFTFSTYAMSWVRQAPGKRLEWVATISQGGTYTYYPDSVKGRFTISRDNAKNTLYLQMNSLRAEDTAVYYCARLIYYDYLDYWGQGTLVTVSS VL: DIVMTQSPLSLPVTLGEPASISCRSSQSLENSNGNTYLNWYLQKPGQSPQLLIYRVSNRFSGVPDRFSGSGSGTDFTLKISRVEAEDVGVYYCLQVTHVPWTFGPGTKVDIKR	no binding (tested: 10 µg/mL)	no binding (tested: 10 µg/mL)	1.8
humanized MAb1 antibody H-1140 (antibody, human IgG2, kappa, V domains shown, Human IgG2 / kappa constant regions; also called hMAb1-H2-type heavy chain + hMAb1-L1-type light chain) VH: EVQLVESGGGLVQPGGSLRLSCAASGFTFSTYAMSWVRQAPGKGLEWVATISQGGTYTYYPDSVKGRFTISRDNAKNTLYLQMNSLRAEDTAVYYCARLIYYDYLDYWGQGTLVTVSS VL: DIVMTQSPLSLPVTLGEPASISCRSSQSLENSNGNTYLNWYLQKPGQSPQLLIYRVSNRFSGVPDRFSGSGSGTDFTLKISRVEAEDVGVYYCLQVTHVPWTFGPGTKVDIKR	–	–	3.9
humanized MAb1 antibody H-2143 (antibody, human IgG2, kappa, V domains shown, Human IgG2 / kappa constant regions; also called hMAb1-H4-type heavy chain + hMAb1-L2-type light chain) VH: EVQLVESGGGLVQPGGSLRLSCAASGFTFSTYAMSWVRQAPGKRLEWVATISQGGTYTYYPDSVKGRFTISRDNAKNTLYLQMNSLRAEDTAVYYCARLIYYDYLDYWGQGTLVTVSS VL: DIVMTQSPLSLPVTLGEPASISCRSSQSLENENKNLYLNWYLQKPGQSPQLLIYRVSNRFSGVPDRFSGSGSGTDFTLKISRVEAEDVGVYYCLQVTHVPWTFGPGTKVDIKR	no binding (tested: 10 µg/mL)	no binding (tested: 10 µg/mL)	1.7

— patent US20150098945A1 (Daiichi Sankyo, published 2015)
